Tests used:
[1] = molecular target: T1, His6-TEV-MSP1D1 (CA15914) (human Apo A-I derived, engineered, biotinylated with EZ-link NHS-Biotin for the BLI experiment only); assay: ELISA, purified MegaBody on coated MSP (Apo- or Nanodisc-state) vs non-coated wells, A405
T1 construct: Membrane scaffold protein; The entry holds the 6xHis tag, the TEV cleavage site and MSP1D1; Tested in Apo-state (lipid free) and in Nanodisc-state (POPC nanodisc, two MSP1D1 per nanodisc)
T1 chain: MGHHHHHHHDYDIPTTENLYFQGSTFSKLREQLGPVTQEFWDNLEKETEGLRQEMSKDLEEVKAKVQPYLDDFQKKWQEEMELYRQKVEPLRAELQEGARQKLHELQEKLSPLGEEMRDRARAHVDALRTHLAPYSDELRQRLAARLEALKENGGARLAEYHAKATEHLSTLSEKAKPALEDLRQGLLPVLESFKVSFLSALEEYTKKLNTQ

[2] = molecular target: T2, His6-TEV-MSP2N2 (CA15915) (human Apo A-I derived, engineered, UniProt P02647 79-267, limits assumed); assay: as above
T2 construct: Membrane scaffold protein; The entry holds the 6xHis tag, the TEV cleavage site and MSP2N2; Tested in Apo-state, in Nanodisc-state, and as the belt of nanodiscs loaded with GABAAR-β3

Binder	fold ELISA signal over no MSP [1] [fold]	fold ELISA signal over no MSP [2] [fold]
MDNb1_B9^c7HopQ MegaBody (CA15898) (other, MegaBody: c7HopQ scaffold inserted in the first β-turn of Nanobody MP1521_B9; Entry includes 6xHis and EPEA tags; The name is printed 'MDNb', probably for 'MbNb') QVQLVESGGGLVQTKTTTSVIDTTNDAQNLLTQAQTIVNTLKDYCPILIAKSSSSNGGTNNANTPSWQTAGGGKNSCATFGAEFSAASDMINNAQKIVQETQQLSANQPKNITQPHNLNLNSPSSLTALAQKMLKNAQSQAEILKLANQVESDFNKLSSGHLKDYIGKCDASAISSANMTMQNQKNNWGNGCAGVEETQSLLKTSAADFNNQTPQINQAQNLANTLIQELGNNTYEQLSRLLTNDNGTNSKTSAQAINQAVNNLNERAKTLAGGTTNSPAYQATLLALRSVLGLWNSMGYAVICGGYTKSPGENNQKDFHYTDENGNGTTINCGGSTNSNGTHSYNGTNTLKADKNVSLSIEQYEKIHEAYQILSKALKQAGLAPLNSKGEKLEAHVTTSKYGSLRLSCAASGRTLCSIPMGWFRQAPGKEREFVAAIRWSGGSTYYADSVKGRFSISKDNAKNTVYLQMNNLKPEDTATYYCASAAPYSSWSRGLEYDYWGQGTQVTVSSHHHHHHEPEA	≥ 4	≥ 4
MbNbB7^c7HopQ MegaBody (CA15901) (other, MegaBody: c7HopQ scaffold inserted in the first β-turn of Nanobody MP1522_B7; Entry includes 6xHis and EPEA tags) QVQLVESGGGLVQTKTTTSVIDTTNDAQNLLTQAQTIVNTLKDYCPILIAKSSSSNGGTNNANTPSWQTAGGGKNSCATFGAEFSAASDMINNAQKIVQETQQLSANQPKNITQPHNLNLNSPSSLTALAQKMLKNAQSQAEILKLANQVESDFNKLSSGHLKDYIGKCDASAISSANMTMQNQKNNWGNGCAGVEETQSLLKTSAADFNNQTPQINQAQNLANTLIQELGNNTYEQLSRLLTNDNGTNSKTSAQAINQAVNNLNERAKTLAGGTTNSPAYQATLLALRSVLGLWNSMGYAVICGGYTKSPGENNQKDFHYTDENGNGTTINCGGSTNSNGTHSYNGTNTLKADKNVSLSIEQYEKIHEAYQILSKALKQAGLAPLNSKGEKLEAHVTTSKYGSLRLSCAASGRSFSSYGMGWFRQAPGKEREFAAGITGTAGITYYTDSVKGRFTISRDNAKNTVYLQMNNLKPEDTAVYYCAAGLTSYAGRGAAGYDYWGQGTQVTVSSHHHHHHEPEA	≥ 4	≥ 4
MbNbH5^c7HopQ MegaBody (CA15904) (other, MegaBody: c7HopQ scaffold inserted in the first β-turn of Nanobody MP1521_H5; Entry includes 6xHis and EPEA tags) QVQLVESGGGLVQTKTTTSVIDTTNDAQNLLTQAQTIVNTLKDYCPILIAKSSSSNGGTNNANTPSWQTAGGGKNSCATFGAEFSAASDMINNAQKIVQETQQLSANQPKNITQPHNLNLNSPSSLTALAQKMLKNAQSQAEILKLANQVESDFNKLSSGHLKDYIGKCDASAISSANMTMQNQKNNWGNGCAGVEETQSLLKTSAADFNNQTPQINQAQNLANTLIQELGNNTYEQLSRLLTNDNGTNSKTSAQAINQAVNNLNERAKTLAGGTTNSPAYQATLLALRSVLGLWNSMGYAVICGGYTKSPGENNQKDFHYTDENGNGTTINCGGSTNSNGTHSYNGTNTLKADKNVSLSIEQYEKIHEAYQILSKALKQAGLAPLNSKGEKLEAHVTTSKYGSLRLSCAASGFTFSTYSMSWVRQAPGKGLEWVSRILTDGGTTSYPDSVKGRFTISRDNAKNTLYLQMNNLKPEDTAVYYCARGWPSDGYSGGYRGQGTQVTVSSHHHHHHEPEA	≥ 4	≥ 4
MbNbA5^c7HopQ MegaBody (CA15906) (other, MegaBody: c7HopQ scaffold inserted in the first β-turn of Nanobody MP1522_A5; Entry includes 6xHis and EPEA tags) QVQLVESGGGLVQTKTTTSVIDTTNDAQNLLTQAQTIVNTLKDYCPILIAKSSSSNGGTNNANTPSWQTAGGGKNSCATFGAEFSAASDMINNAQKIVQETQQLSANQPKNITQPHNLNLNSPSSLTALAQKMLKNAQSQAEILKLANQVESDFNKLSSGHLKDYIGKCDASAISSANMTMQNQKNNWGNGCAGVEETQSLLKTSAADFNNQTPQINQAQNLANTLIQELGNNTYEQLSRLLTNDNGTNSKTSAQAINQAVNNLNERAKTLAGGTTNSPAYQATLLALRSVLGLWNSMGYAVICGGYTKSPGENNQKDFHYTDENGNGTTINCGGSTNSNGTHSYNGTNTLKADKNVSLSIEQYEKIHEAYQILSKALKQAGLAPLNSKGEKLEAHVTTSKYGSLRLSCAASGFAFSNSYMSWVRQAPGKGPEWVSSISPSAWIITHGDSVKGRFTISRDNAKNTLYLQMNHLKPEDAALYYCARRQGYDGYVPSRDYWGQGTQVTVSSHHHHHHEPEA	≥ 4	≥ 4
MbNbC10^c7HopQ MegaBody (CA15905) (other, MegaBody: c7HopQ scaffold inserted in the first β-turn of Nanobody MP1522_C10; Entry includes 6xHis and EPEA tags) QVQLVESGGGLVQTKTTTSVIDTTNDAQNLLTQAQTIVNTLKDYCPILIAKSSSSNGGTNNANTPSWQTAGGGKNSCATFGAEFSAASDMINNAQKIVQETQQLSANQPKNITQPHNLNLNSPSSLTALAQKMLKNAQSQAEILKLANQVESDFNKLSSGHLKDYIGKCDASAISSANMTMQNQKNNWGNGCAGVEETQSLLKTSAADFNNQTPQINQAQNLANTLIQELGNNTYEQLSRLLTNDNGTNSKTSAQAINQAVNNLNERAKTLAGGTTNSPAYQATLLALRSVLGLWNSMGYAVICGGYTKSPGENNQKDFHYTDENGNGTTINCGGSTNSNGTHSYNGTNTLKADKNVSLSIEQYEKIHEAYQILSKALKQAGLAPLNSKGEKLEAHVTTSKYGSLRLSCAASGRTSGSYAIGWFRQAPGKEREFAAAISFTAGVTYYSNSVKGRFTISRDSAKNTAYLQMNTLKPEDTAVYYCATLPSLVLILTAKPNIGYWGQGTQVTVSSHHHHHHEPEA	≥ 4	≥ 4
MbNbG9^c7HopQ MegaBody (CA15899) (other, MegaBody: c7HopQ scaffold inserted in the first β-turn of Nanobody MP1521_G9; Entry includes 6xHis and EPEA tags) QVQLVESGGGSVQTKTTTSVIDTTNDAQNLLTQAQTIVNTLKDYCPILIAKSSSSNGGTNNANTPSWQTAGGGKNSCATFGAEFSAASDMINNAQKIVQETQQLSANQPKNITQPHNLNLNSPSSLTALAQKMLKNAQSQAEILKLANQVESDFNKLSSGHLKDYIGKCDASAISSANMTMQNQKNNWGNGCAGVEETQSLLKTSAADFNNQTPQINQAQNLANTLIQELGNNTYEQLSRLLTNDNGTNSKTSAQAINQAVNNLNERAKTLAGGTTNSPAYQATLLALRSVLGLWNSMGYAVICGGYTKSPGENNQKDFHYTDENGNGTTINCGGSTNSNGTHSYNGTNTLKADKNVSLSIEQYEKIHEAYQILSKALKQAGLAPLNSKGEKLEAHVTTSKYGSLRLSCAASGRTFSTYRMGWFRQAPGKEREFVAGWNSINIYYADSVKGRFTISGDNAKSTVYLQMNSLKPEDTAVYYCAARGLGQTEYNYWGQGTQVTVSSHHHHHHEPEA	≥ 4	≥ 4
MbNbB4^c7HopQ MegaBody (CA15907) (other, MegaBody: c7HopQ scaffold inserted in the first β-turn of Nanobody MP1521_B4; Entry includes 6xHis and EPEA tags) QVQLVESGGGLVQTKTTTSVIDTTNDAQNLLTQAQTIVNTLKDYCPILIAKSSSSNGGTNNANTPSWQTAGGGKNSCATFGAEFSAASDMINNAQKIVQETQQLSANQPKNITQPHNLNLNSPSSLTALAQKMLKNAQSQAEILKLANQVESDFNKLSSGHLKDYIGKCDASAISSANMTMQNQKNNWGNGCAGVEETQSLLKTSAADFNNQTPQINQAQNLANTLIQELGNNTYEQLSRLLTNDNGTNSKTSAQAINQAVNNLNERAKTLAGGTTNSPAYQATLLALRSVLGLWNSMGYAVICGGYTKSPGENNQKDFHYTDENGNGTTINCGGSTNSNGTHSYNGTNTLKADKNVSLSIEQYEKIHEAYQILSKALKQAGLAPLNSKGEKLEAHVTTSKYGSLRLSCAASKSFFNIYDLAWYRQAPGKQRELVASITKVGSTNYADSVKGRFTTSRDNAKKTVYLQMNSLKPEDTAVYYCNLVSPGGVYNYWGQGTQVTVSSHHHHHHEPEA	≥ 4	≥ 4
MbNbE4^c7HopQ MegaBody (CA15191) (other, MegaBody: c7HopQ scaffold inserted in the first β-turn of Nanobody MP1521_E4; Entry includes 6xHis and EPEA tags) QVQLVESGGGLVQTKTTTSVIDTTNDAQNLLTQAQTIVNTLKDYCPILIAKSSSSNGGTNNANTPSWQTAGGGKNSCATFGAEFSAASDMINNAQKIVQETQQLSANQPKNITQPHNLNLNSPSSLTALAQKMLKNAQSQAEILKLANQVESDFNKLSSGHLKDYIGKCDASAISSANMTMQNQKNNWGNGCAGVEETQSLLKTSAADFNNQTPQINQAQNLANTLIQELGNNTYEQLSRLLTNDNGTNSKTSAQAINQAVNNLNERAKTLAGGTTNSPAYQATLLALRSVLGLWNSMGYAVICGGYTKSPGENNQKDFHYTDENGNGTTINCGGSTNSNGTHSYNGTNTLKADKNVSLSIEQYEKIHEAYQILSKALKQAGLAPLNSKGEKLEAHVTTSKYGSLRLSCAASGRTFGSTFMGWFRQAPGKERDFVASITWNRGLTTYADSVKGRFTISRDSAKNTVDLQMNNLKPEDTAVYYCVLGMGTSFASWGQGTQVTVSSHHHHHHEPEA	≥ 4	≥ 4
MbNb2_B9^c7HopQ MegaBody (CA15903) (other, MegaBody: c7HopQ scaffold inserted in the first β-turn of Nanobody MP1522_B9; Entry includes 6xHis and EPEA tags) QVQLVESGGGLVQTKTTTSVIDTTNDAQNLLTQAQTIVNTLKDYCPILIAKSSSSNGGTNNANTPSWQTAGGGKNSCATFGAEFSAASDMINNAQKIVQETQQLSANQPKNITQPHNLNLNSPSSLTALAQKMLKNAQSQAEILKLANQVESDFNKLSSGHLKDYIGKCDASAISSANMTMQNQKNNWGNGCAGVEETQSLLKTSAADFNNQTPQINQAQNLANTLIQELGNNTYEQLSRLLTNDNGTNSKTSAQAINQAVNNLNERAKTLAGGTTNSPAYQATLLALRSVLGLWNSMGYAVICGGYTKSPGENNQKDFHYTDENGNGTTINCGGSTNSNGTHSYNGTNTLKADKNVSLSIEQYEKIHEAYQILSKALKQAGLAPLNSKGEKLEAHVTTSKYGSLRLSCVRSARTFGSVAMGWFRQAPGKEREFVTAIDWSGSNTLYADSVKGRFTISRDNAKNTVYLQMNSLKPDDTAVYYCAASRRVVVTTSDFDSWGQGTQVTVSSHHHHHHEPEA	≥ 4	≥ 4
MbNbA12^c7HopQ MegaBody (CA15900) (other, MegaBody: c7HopQ scaffold inserted in the first β-turn of Nanobody MP1522_A12; Entry includes 6xHis and EPEA tags) QVQLVESGGGLVQTKTTTSVIDTTNDAQNLLTQAQTIVNTLKDYCPILIAKSSSSNGGTNNANTPSWQTAGGGKNSCATFGAEFSAASDMINNAQKIVQETQQLSANQPKNITQPHNLNLNSPSSLTALAQKMLKNAQSQAEILKLANQVESDFNKLSSGHLKDYIGKCDASAISSANMTMQNQKNNWGNGCAGVEETQSLLKTSAADFNNQTPQINQAQNLANTLIQELGNNTYEQLSRLLTNDNGTNSKTSAQAINQAVNNLNERAKTLAGGTTNSPAYQATLLALRSVLGLWNSMGYAVICGGYTKSPGENNQKDFHYTDENGNGTTINCGGSTNSNGTHSYNGTNTLKADKNVSLSIEQYEKIHEAYQILSKALKQAGLAPLNSKGEKLEAHVTTSKYGSLRLSCAASGRTFSSYNMAWFRQVPGKEREFVASIARTGSGTYYRDSVKGRFTISRDNAKNTVYLQMNSLKPQDTAVYYCTAGGSLATISDYWGQGTQVTVSSHHHHHHEPEA	≥ 4	≥ 4
